Data from PMC3546728, “Bacterial Over-Expression and Purification of the 3′phosphoadenosine 5′phosphosulfate (PAPS) Reductase Domain of Human FAD Synthase: Functional Characterization and Homology Modeling” (International Journal of Molecular Sciences, 2012).

Legend:
Assay in all cases: purified protein
Type in all cases: biochemical, Homo sapiens
[1] = system: T1, Cc1cc2nc3c(=O)[nH]c(=O)nc-3n(C[C@H](O)[C@H](O)[C@H](O)COP(=O)(O)O)c2cc1C; conditions: 100 μM ATP, 5 mM MgCl2, 50 mM Tris/HCl pH 7.5, 37 °C
T1 construct: C-terminal PAPS reductase domain, residues 329-587; vector pH6EX3; E. coli Rosetta (DE3); theoretical 31499 Da, ~28 kDa on SDS-PAGE

O=P(O)(O)OP(=O)(O)O = system: T2, O=P(O)(O)OP(=O)(O)O; conditions: reverse reaction, 0.5 μM FAD, 5 mM MgCl2, 50 mM Tris/HCl pH 7.5, 37 °C
T2 construct: C-terminal PAPS reductase domain, residues 329-587; vector pH6EX3; E. coli Rosetta (DE3); theoretical 31499 Da, ~28 kDa on SDS-PAGE

[2] = system: T3, Nc1ncnc2c1ncn2[C@@H]1O[C@H](COP(=O)(O)OP(=O)(O)OP(=O)(O)O)[C@@H](O)[C@H]1O; conditions: 2 μM FMN, 5 mM MgCl2, 50 mM Tris/HCl pH 7.5, 37 °C
T3 construct: C-terminal PAPS reductase domain, residues 329-587; vector pH6EX3; E. coli Rosetta (DE3); theoretical 31499 Da, ~28 kDa on SDS-PAGE

6-His-Δ1-328-hFADS (Homo sapiens), sequence (chain, as listed by the source mutant): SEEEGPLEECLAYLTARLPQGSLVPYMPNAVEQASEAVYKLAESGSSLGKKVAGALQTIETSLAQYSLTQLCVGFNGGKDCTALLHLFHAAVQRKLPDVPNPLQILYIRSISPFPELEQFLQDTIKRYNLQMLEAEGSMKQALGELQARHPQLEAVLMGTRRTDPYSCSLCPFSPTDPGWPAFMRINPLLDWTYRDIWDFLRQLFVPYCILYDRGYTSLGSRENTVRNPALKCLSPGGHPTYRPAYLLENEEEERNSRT

6-His-Δ1-328-hFADS (Homo sapiens)
Km [1]: 0.24 ± 0.06 µM
kcat [1]: 0.042 ± 0.001 s⁻¹
Km (O=P(O)(O)OP(=O)(O)O): 92.0 ± 0.5 µM
kcat (O=P(O)(O)OP(=O)(O)O): 0.0037 ± 0.0009 s⁻¹
Km [2]: 6.23 ± 1.5 µM
kcat [2]: 0.042 ± 0.001 s⁻¹
